Molecular target: EGFP-LOV2-OPTN_((412-520)) (Avena sativa | not stated) (UniProt Q96CV9)
Experiment: SEC

- stoichiometry N: 2
Substance: EGFP-LOV2-OPTN_((412-520)) (from UniProt Q96CV9 412-520) (designed binder)

— publication doi:10.1101/068965
